Usually EC50 stands for the concentration at which the effect is half-maximal. For orientation: Kd means the constant that tells how readily two partners part at equilibrium. As a reminder, the koff is the first-order rate constant of dissociation. What is called kon is a measure of how fast the partners come together.

For experiment [1], the target named is T1, human CD73 protein (ACRO Biosystems, Cat No. CD3-H52H7) (human, UniProt P21589 27-547).
T1 sequence: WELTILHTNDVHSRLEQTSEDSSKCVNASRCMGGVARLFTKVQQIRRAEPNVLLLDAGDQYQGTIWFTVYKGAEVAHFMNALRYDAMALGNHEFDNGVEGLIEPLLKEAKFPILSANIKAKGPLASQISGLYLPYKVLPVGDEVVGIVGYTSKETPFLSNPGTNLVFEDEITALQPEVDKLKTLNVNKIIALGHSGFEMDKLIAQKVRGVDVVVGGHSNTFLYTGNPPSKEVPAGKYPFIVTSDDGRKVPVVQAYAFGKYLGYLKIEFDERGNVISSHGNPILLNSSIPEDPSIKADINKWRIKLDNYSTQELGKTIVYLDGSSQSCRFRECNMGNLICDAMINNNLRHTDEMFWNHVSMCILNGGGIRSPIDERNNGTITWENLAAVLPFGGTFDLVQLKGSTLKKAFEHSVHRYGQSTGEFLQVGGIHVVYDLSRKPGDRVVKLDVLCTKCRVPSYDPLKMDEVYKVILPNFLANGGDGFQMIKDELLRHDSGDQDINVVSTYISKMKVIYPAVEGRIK
Description: cell-based or functional assay.

The target of experiment [2] is T2, human CD73 on the cell surface (human, UniProt P21589 27-549).
T2 construct: also called CHOK1-huCD73-3F4 cells; human CD73-expressing cells
T2 sequence: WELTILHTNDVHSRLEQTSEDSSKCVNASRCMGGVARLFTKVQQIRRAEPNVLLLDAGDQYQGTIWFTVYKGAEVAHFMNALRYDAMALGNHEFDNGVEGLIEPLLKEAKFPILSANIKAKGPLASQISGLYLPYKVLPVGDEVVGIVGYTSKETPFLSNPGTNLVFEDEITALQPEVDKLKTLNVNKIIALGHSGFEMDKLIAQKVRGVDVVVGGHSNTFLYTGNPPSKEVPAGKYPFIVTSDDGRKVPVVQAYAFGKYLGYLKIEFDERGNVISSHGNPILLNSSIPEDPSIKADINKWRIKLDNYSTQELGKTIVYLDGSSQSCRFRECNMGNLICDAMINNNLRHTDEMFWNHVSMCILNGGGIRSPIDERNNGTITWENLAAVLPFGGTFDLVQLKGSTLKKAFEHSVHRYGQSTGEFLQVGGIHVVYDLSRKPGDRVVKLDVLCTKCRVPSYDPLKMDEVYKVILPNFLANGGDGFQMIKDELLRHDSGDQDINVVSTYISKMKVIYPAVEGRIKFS
Description: flow cytometry on CHOK1-huCD73-3F4 cells, PE anti-human Fc. How it is done:
(§1) All the antigen-binding proteins were diluted to 30 μg/ml with PBS solution containing 1% BSA (1% BSA/PBS), diluted at 3-fold into 11 gradients and then added to a 96-well U-shaped plate at 20 μL/well, and negative control (1% BSA/PBS was added only) was set up simultaneously. The suspension of human CD73-expressing cells (CHOK1-huCD73-3F4, Huabo Biopharm) in the logarithmic growth phase were collected and centrifuged at 1000 rpm for 5 min, and the culture medium was discarded; then the cells were resuspended with 1% BSA/PBS to a viable cell density of 1×10⁶/mL, and then added into the 96-well U-shaped plate already added with anti-CD73 antigen-binding protein at 20 μL (2×10⁴ cells)/well for reaction at room temperature for 30 min. […] After the reaction, the cells in the 96-well U-shaped plate were resuspended with 1% BSA/PBS and centrifuged at 300 g for 3 min and the supernatant was discarded; after washing in this manner 3 times, and the cells were finally resuspended with 1% BSA/PBS at 100 μL/well, and the fluorescence intensity of the PE channel was measured with a flow cytometer (BD, #Canto II).
(In general: A flow cytometer gives signals particle by particle.)

The target of experiment [3] is T3, monkey CD73 (Novoprotein, Cat No. C121) (monkey, UniProt A0A2K5V5U7 27-549).
T3 construct: Bought protein; also called monkey CD73 protein
T3 sequence: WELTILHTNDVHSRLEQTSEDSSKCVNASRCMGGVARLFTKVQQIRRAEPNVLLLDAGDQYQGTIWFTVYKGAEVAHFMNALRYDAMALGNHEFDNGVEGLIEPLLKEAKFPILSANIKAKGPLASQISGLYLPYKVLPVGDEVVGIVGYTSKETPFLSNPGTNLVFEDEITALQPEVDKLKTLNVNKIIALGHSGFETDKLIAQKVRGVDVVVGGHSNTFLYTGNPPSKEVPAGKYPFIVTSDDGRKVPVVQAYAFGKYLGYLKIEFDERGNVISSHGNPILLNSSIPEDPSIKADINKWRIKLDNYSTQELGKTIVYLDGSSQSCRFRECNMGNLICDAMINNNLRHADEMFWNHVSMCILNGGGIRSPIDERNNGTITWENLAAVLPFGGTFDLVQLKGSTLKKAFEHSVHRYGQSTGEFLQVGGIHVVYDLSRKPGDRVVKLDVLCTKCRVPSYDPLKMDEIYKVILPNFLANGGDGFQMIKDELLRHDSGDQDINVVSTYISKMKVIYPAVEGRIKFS
Kind of experiment: SPR (Biacore T200), antibody captured on protein A chip, CD73 as analyte, 1:1 model. As to the method:
The temperatures of the sample chamber and flow path were set at 25° C. The protein A chips separately captured the antigen-binding proteins as ligands, which were immobilized at about 100 RU. […] Ten mM Glycine, pH 1.5, was regenerated for 60 s at a flow rate of […] for multiple cycle kinetic detection. The binding rate constant (ka), dissociation rate constant (kd) and dissociation equilibrium rate constant (KD) were fitted using the Fit local mode of a 1:1 binding model.

Experiment [4] has as its target T2, human CD73 on the cell surface. Kind of experiment: cell-based or functional assay.
Experiment [5] shares this target. Kind of experiment: flow cytometry on CHOK1-huCD73-3F4 cells, PE anti-human Fc. How it is done: as §1
This is another data set of the same source.

Where two headings read alike, the source gives them in different places.

B1: 900695 (antibody, V domains shown)
VH: QVQLVESGGGLVKPGGSLRLSCAASGFTFSKYAMSWVRQAPGKGLEWVAEISSGGGYINYADSVTGRFTISRDNAKNSLYLQMNSLRAEDTAVYYCARAIYYYGSSYNYYAMDYWGQGTTVTVSS
VL: DIQMTQSPSSLSASVGDRVTITCRASQDVGTAEAWYQQKPGKAPKLLIYWASTRHTGVPSRFSGSGSGTDFTLTISSLQPEDFATYYCQQYSSYPLTFGQGTKLEIK
notes: Constant regions are not restated
With B1, the “EC50(µg/mL), inhibition of recombinant CD73 (CellTiter-Glo)” value (“EC50(µg/mL), inhibition … (CellTiter-Glo)” below) in experiment [1] is 0.746 µg/mL. The molecule further had an EC50 in experiment [2] of 0.594 µg/mL. In experiment [3], this molecule came in with a Kd of 0.822 nM, a dissociation rate constant (koff) of 0.000148 s⁻¹ and a kon of 180000 M⁻¹ s⁻¹.

B2: 900698 (antibody, V domains shown)
VH: QVQLVESGGGLVKPGGSLRLSCAASGFTFSKYAMSWIRQAPGKGLEWVAEISSGGGYINYADSVKGRFTISRDNAKNSLYLQMNSLRAEDTAVYYCARAIYYYGSSYNYYAMDYWGQGTTVTVSS
VL: DIQMTQSPSSLSASVGDRVTITCRASQDVGTAEAWYQQKPGKAPKLLIYWASTRHTGVPSRFSGSGSGTDFTLTISSLQPEDFATYYCQQYSSYPLTFGQGTKLEIK
notes: as for B1
In the case of B2, the “EC50(µg/mL), inhibition … (CellTiter-Glo)” value in experiment [1] came out at 0.588 µg/mL. Further, in experiment [2], the half-maximal effective concentration (EC50) was determined as 0.688 µg/mL. In experiment [3], this molecule returned a Kd of 1.41 nM, a koff of 0.000115 s⁻¹ and a kon of 108000 M⁻¹ s⁻¹.

B3: 900696 (antibody, V domains shown)
VH: QVQLVESGGGLVKPGGSLRLSCAASGFTFSKYAMSWIRQAPGKGLEWVAEISSGGGYINYADSVKGRFTISRDNAKNSLYLQMNSLRAEDTAVYYCARAIYYYGSSYNYYAMDYWGQGTTVTVSS
VL: DIQMTQSPSSLSASVGDRVTITCRASQDVGTAEAWYQQKPGKAPKLLIYWASTLQSGVPSRFSGSGSGTDFTLTISSLQPEDFATYYCQQYSSYPLTFGQGTKLEIK
notes: as for B1
For B3, the “EC50(µg/mL), inhibition … (CellTiter-Glo)” value in experiment [1] worked out at 0.751 µg/mL. The molecule further showed a concentration giving a half-maximal response (EC50) in experiment [2] of 0.684 µg/mL. In experiment [3], this molecule came in with a dissociation constant (Kd) of 0.604 nM, an off-rate constant (koff) of 0.000214 s⁻¹ and an on-rate (kon) of 354000 M⁻¹ s⁻¹.

B4: 900697 (antibody, V domains shown)
VH: QVQLVESGGGLVKPGGSLRLSCAASGFTFSKYAMSWVRQAPGKGLEWVAEISSGGGYINYADSVTGRFTISRDNAKNSLYLQMNSLRAEDTAVYYCARAIYYYGSSYNYYAMDYWGQGTTVTVSS
VL: DIQMTQSPSSLSASVGDRVTITCRASQDVGTAEAWYQQKPGKAPKLLIYWASTLQSGVPSRFSGSGSGTDFTLTISSLQPEDFATYYCQQYSSYPLTFGQGTKLEIK
notes: as for B1
Take B4: the “EC50(µg/mL), inhibition … (CellTiter-Glo)” value in experiment [1] stood at 0.585 µg/mL. Also, a half-maximal effect in experiment [2] (EC50) was put at 0.518 µg/mL. Further, in experiment [3], the Kd is 2.13 nM, the dissociation rate constant (koff) was found to be 0.000137 s⁻¹ and the kon was 64100 M⁻¹ s⁻¹.

B5: 900581 (antibody, human IgG1, V domains shown)
VH: EVQLVESGGGLVKPGGSLKLSCAASGFTFSKYAMSWVRQSPEKRLEWVAEISSGGGYINYPDTVTGRFTISRDNAKNTLYLEMSSLRSGDTAMYYCARAIYYYGSSYNYYAMDYWGQGTSVTVSS
VL: DIVMTQSHKFMSTSVGDRVSITCKASQDVGTAEAWYQQKPGQSPKLLIYWASTRHTGVPDRFTGSGSGTDFTLTIGNVQSEDLADYFCQQYSSYPLTFGGGTKLEIK
For the molecule B5, in experiment [1], the “EC50(µg/mL), inhibition … (CellTiter-Glo)” value was determined as 0.262 µg/mL. In addition, the “EC50(µg/mL), inhibition of enzyme activity of CD73 on CHOK1-huCD73-3F4 cells” value in experiment [4] stood at 0.944 µg/mL. The molecule also gave an EC50 in experiment [5] of 0.426 µg/mL. In addition, in experiment [2], the response was half-maximal at 0.347 µg/mL (EC50). Further, in experiment [3], binding was characterised by a dissociation constant (Kd) of 1.05 nM, the dissociation rate constant (koff) is 0.000358 s⁻¹ and the kon was found to be 349000 M⁻¹ s⁻¹.
